Data on 1 substance can be found in patent US20180244762A1.

In assay [1] the target is recombinant human PDGF-BB (human) (UniProt P01127). Nature of the assay: competitive ELISA: binder preincubated with 0.2 nM rhPDGF-BB, competitor immobilized PDGFR/Fc.
The target is the same in assay [2]. Nature of the assay: optical biosensor (Proteon XPR36 / Biacore 2000), binder amine-coupled, rhPDGF-BB injected, 25 C.
The target is the same in assay [3]. Nature of the assay: cell-based or functional assay.

recombinant human PDGF-BB (human), sequence (P01127 82-190): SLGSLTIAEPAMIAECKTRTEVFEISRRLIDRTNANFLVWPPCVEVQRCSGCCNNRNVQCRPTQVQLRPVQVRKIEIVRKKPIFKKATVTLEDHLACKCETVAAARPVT

As a reminder, the IC50 is the point on the concentration scale where inhibition reaches its midpoint. The Kd is the constant that tells how readily two partners part at equilibrium. For “reference anti-PDGF-BB antibody (R&D Systems, Catalog # AB-220-NA)”, in assay [1], the IC50 is 0.066 nM. Also, in assay [2], the Kd worked out at 0.107 nM. For the same substance, the Inhibition of PDGF induced proliferation of HPVPs, IC50 in assay [3] was 5.4 nM.
